Test results taken from patent publication US20200323888A1, “INHIBITORS” (VESTLANDETS INNOVASJONSSELSKAP AS, priority 2017, published 2020).
Square brackets hold non-standard residues; d marks the D form. Ends that are not written are not given here. Nle = CCCC[C@H](N)C(=O)O; CoA = coenzyme A

T1: MBP-HishNAA80 fusion protein (MBP-Naa80) (human, UniProt Q93015-2 1-308)
T1 sequence (looked up): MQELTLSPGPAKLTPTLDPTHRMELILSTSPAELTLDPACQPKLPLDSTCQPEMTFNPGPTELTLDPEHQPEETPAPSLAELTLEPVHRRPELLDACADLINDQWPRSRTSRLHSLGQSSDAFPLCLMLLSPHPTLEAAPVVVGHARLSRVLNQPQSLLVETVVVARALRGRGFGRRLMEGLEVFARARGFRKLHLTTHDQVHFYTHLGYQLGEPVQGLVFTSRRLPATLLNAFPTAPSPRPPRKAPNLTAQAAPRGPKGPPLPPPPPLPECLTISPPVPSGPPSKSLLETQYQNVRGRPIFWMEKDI

T2: Naa80 (Homo sapiens, UniProt Q93015)
T2 construct: The PCR product containing the CDS was inserted into the TOPO TA vector; made in house; host or cells: E. coli BL21 Star (DE3)
T2 sequence (Q93015 1-308 isoform Q93015-2): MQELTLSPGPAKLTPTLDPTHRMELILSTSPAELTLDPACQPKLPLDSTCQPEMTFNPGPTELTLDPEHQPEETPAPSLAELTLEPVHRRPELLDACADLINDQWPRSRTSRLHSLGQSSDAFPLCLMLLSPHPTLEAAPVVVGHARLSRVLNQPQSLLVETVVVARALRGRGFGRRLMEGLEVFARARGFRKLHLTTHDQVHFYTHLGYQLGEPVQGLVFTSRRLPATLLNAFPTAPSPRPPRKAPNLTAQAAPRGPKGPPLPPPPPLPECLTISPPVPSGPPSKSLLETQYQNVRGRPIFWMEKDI

T3: NatA complex (Naa15-Naa10) (human, UniProt P41227 1-235; Q9BXJ9 1-866)
T3 sequence (looked up) 1: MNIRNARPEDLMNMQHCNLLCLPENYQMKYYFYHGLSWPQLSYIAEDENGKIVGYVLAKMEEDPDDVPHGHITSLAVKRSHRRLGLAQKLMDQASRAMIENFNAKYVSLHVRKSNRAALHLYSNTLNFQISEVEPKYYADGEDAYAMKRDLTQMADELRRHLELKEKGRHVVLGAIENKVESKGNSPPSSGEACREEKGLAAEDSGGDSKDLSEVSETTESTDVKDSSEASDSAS
T3 sequence (looked up) 2: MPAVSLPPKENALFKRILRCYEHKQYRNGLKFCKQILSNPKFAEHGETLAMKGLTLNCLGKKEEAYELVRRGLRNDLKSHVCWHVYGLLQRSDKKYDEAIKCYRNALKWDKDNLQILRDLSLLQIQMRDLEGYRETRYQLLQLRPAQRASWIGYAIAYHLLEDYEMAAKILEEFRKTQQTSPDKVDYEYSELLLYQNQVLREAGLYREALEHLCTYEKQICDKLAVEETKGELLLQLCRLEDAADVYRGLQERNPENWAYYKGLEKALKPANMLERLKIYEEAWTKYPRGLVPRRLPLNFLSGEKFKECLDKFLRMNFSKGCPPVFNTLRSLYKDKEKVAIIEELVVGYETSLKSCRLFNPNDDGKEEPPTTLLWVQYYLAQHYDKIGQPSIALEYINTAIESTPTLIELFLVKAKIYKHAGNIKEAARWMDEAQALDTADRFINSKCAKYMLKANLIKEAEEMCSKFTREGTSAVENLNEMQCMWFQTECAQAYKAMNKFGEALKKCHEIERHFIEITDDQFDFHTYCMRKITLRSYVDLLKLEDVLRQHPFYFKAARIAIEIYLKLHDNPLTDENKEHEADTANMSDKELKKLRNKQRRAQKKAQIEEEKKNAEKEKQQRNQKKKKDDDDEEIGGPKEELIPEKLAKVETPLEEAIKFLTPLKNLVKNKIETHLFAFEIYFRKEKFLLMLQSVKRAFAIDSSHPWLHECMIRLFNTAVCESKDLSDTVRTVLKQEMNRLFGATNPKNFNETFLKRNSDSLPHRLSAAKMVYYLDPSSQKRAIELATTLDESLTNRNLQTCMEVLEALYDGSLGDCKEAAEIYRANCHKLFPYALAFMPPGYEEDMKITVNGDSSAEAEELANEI


These molecules were tested against T1, MBP-HishNAA80 fusion protein (MBP-Naa80) (assay: cell-based or functional assay). Details: not given.

| Molecule | Product formation |
| --- | --- |
| AVFADLDRWGRPVGRRRRPVRVYP [AVFA24] | -0.96 µM |
| MKKSYSGRWGRPVGRRRRPVRVYP [MKKS24] | 3.37 µM |
| MAPLDLDRWGRPVGRRRRPVRVYP [MAPL24] | 2.28 µM |
| MLGPEGGRWGRPVGRRRRPVRVYP [MLGP24] | 2.06 µM |
| MELLSPPRWGRPVGRRRRPVRVYP [MELL24] | 2.15 µM |
| MDELFPLRWGRPVGRRRRPVRVYP [MDEL24] | 119 µM |
| EEEIAALRWGRPVGRRRRPVRVYP [EEEI24] | 42.4 µM |
| DDDIAALRWGRPVGRRRRPVRVYP [DDDI24] | 50.5 µM |
| MTNKSSLRWGRPVGRRRRPVRVYP [MTNK24] | -4.25 µM |
| SESSSKSRWGRPVGRRRRPVRVYP [SESS24] | 1.14 µM |

Molecular target: T1, MBP-HishNAA80 fusion protein (MBP-Naa80)
Test: cell-based or functional assay
Details: not given
Remark: another data set of the same source

| Molecule | IC50 (µM), Nt-acetylation inhibition |
| --- | --- |
| {CoA-Ac}-EDQL-NH2 [EDQL (Naa80 bisubstrate analogue inhibitor)] | 0.85 µM |
| {CoA-Ac}-EDDI-NH2 [EDDI (Naa80 bisubstrate analogue inhibitor)] | 0.12 µM |
| {CoA-Ac}-DEDI-NH2 [DEDI (Naa80 bisubstrate analogue inhibitor)] | 3.12 µM |
| {CoA-Ac}-EDEI-NH2 [EDEI (Naa80 bisubstrate analogue inhibitor)] | 0.76 µM |
| {CoA-Ac}-EEDI-NH2 [EEDI (Naa80 bisubstrate analogue inhibitor)] | 0.17 µM |
| {CoA-Ac}-PDEL-NH2 [PDEL (Naa80 bisubstrate analogue inhibitor)] | 13.4 µM |
| {CoA-Ac}-DEEI-NH2 [DEEI (Naa80 bisubstrate analogue inhibitor)] | 1.22 µM |
| {CoA-Ac}-MDEL-NH2 [CoA-Ac-MDEL-NH2] | 1.26 µM |
| {CoA-Ac}-DEEL-NH2 [DEEL (Naa80 bisubstrate analogue inhibitor)] | 4.73 µM |
| {CoA-Ac}-EDEL-NH2 [EDEL (Naa80 bisubstrate analogue inhibitor)] | 0.15 µM |
| {CoA-Ac}-EEDL-NH2 [EEDL (Naa80 bisubstrate analogue inhibitor)] | 1.76 µM |
| {CoA-Ac}-QEEI-NH2 [QEEI (Naa80 bisubstrate analogue inhibitor)] | 2.23 µM |
| {CoA-Ac}-ESEL-NH2 [ESEL (Naa80 bisubstrate analogue inhibitor)] | 11.5 µM |
| {CoA-Ac}-EEEI-NH2 [CoA-Ac-EEEI-NH2] | 1.16 µM |
| {CoA-Ac}-DDEI-NH2 [DDEI (Naa80 bisubstrate analogue inhibitor)] | 2.67 µM |
| {CoA-Ac}-EEEL-NH2 [EEEL (Naa80 bisubstrate analogue inhibitor)] | 1.16 µM |

What follows are molecules tested against T2, Naa80 (assay: Naa80 substrate screening assay (peptide acetylation by purified Naa80)). Details: Naa80 mediated acetylation of 24-mer peptide substrates.
Type: biochemical
Source text: In order to investigate the in vitro activity of Naa80 further, an enzyme activity screening assay on purified Naa80 was undertaken using a broad substrate library (including amino acids, nucleosides, coenzymes, amines, saccharides, vitamins, antioxidants and peptides) modified from Kuhn et al. (Kuhn et al. (2013) “Broad-substrate screen as a tool to identify substrates for bacterial Gcn5-related N-acetyltransferases with unknown substrate specificity”. Protein Science 22(2):222-230). Among all of the potential substrates tested, only the peptides with N-terminal sequence of MDEL24 (SEQ ID NO: 45), DDDI24 (SEQ ID NO: 41) and EEEI24 (SEQ ID NO: 40) were acetylated, as shown in the following table:
The 24-mer substrate peptides differed in their 7 N-terminal amino acids while the 17 C-terminal residues (RWGRPVGRRRRPVRVYP, SEQ ID NO: 39) were kept constant: EEEI24 (EEEIAAL, SEQ ID NO: 40), DDDI24 (DDDIAAL, SEQ ID NO: 41), MDDD24 (MDDDIAA, SEQ ID NO: 42), SESS24 (SESSSKS, SEQ ID NO: 43), AVFA24 (AVFADLD, SEQ ID NO: 44), MDEL24 (MDELFPL, SEQ ID NO: 45), MELL24 (MELLSPP, SEQ ID NO: 46), MLGT24 (MLGTGPA, SEQ ID NO: 47), MTNK24 (MTNKSSL, SEQ ID NO: 48), MLGP24 (MLGPEGG, SEQ ID NO: 49), MAPL24 (MAPLDLD, SEQ ID NO: 50), MKKS24 (MKKSYSG, SEQ ID NO: 51).
Both MDEL (p65, SEQ ID NO: 8) and MDDD24 (unprocessed β-actin, SEQ ID NO: 42) represent cellular NatB substrates.

| Molecule | Product formation |
| --- | --- |
| MLGP24: 24-mer substrate peptide: N-terminal MLGPEGG (SEQ ID NO: 49) plus constant RWGRPVGRRRRPVRVYP (MLGPEGGRWGRPVGRRRRPVRVYP) | 2.06 (±1.49) μM |

The molecules below were run against T3, NatA complex (Naa15-Naa10) (assay: cell-based or functional assay). Details: not given.

| Molecule | IC50 (µM), Nt-acetylation inhibition |
| --- | --- |
| {CoA-Ac}-PS[Nle]P (not fully specified (C-terminus); printed as CoA-Ac-PS(Nle)P) [CoA-Ac-PS(Nle)P] | > 1000 µM |
| {CoA-Ac}-SSAA-NH2 [CoA-Ac-SSAA] | 5.3 µM |
| {CoA-Ac}-SSAE-NH2 [CoA-Ac-SSAE] | 4.7 µM |
| {CoA-Ac}-SESS-NH2 [CoA-Ac-SESS] | 15.4 µM |
| {CoA-Ac}-SAAE-NH2 [CoA-Ac-SAAE] | 12.1 µM |
| {CoA-Ac}-SYAE-NH2 [CoA-Ac-SYAE] | 36.2 µM |
| {CoA-Ac}-SSSE-NH2 [CoA-Ac-SSSE] | 9.47 µM |
| {CoA-Ac}-SSMPV-NH2 [CoA-Ac-SSMPV] | 2.1 µM |
| {CoA-Ac}-SASE-NH2 [CoA-Ac-SASE] | 62.4 µM |
| {CoA-Ac}-SSME-NH2 [CoA-Ac-SSME] | 1.28 µM |
| {CoA-Ac}-SSMP-NH2 [CoA-Ac-SSMP] | 0.82 µM |
| {CoA-Ac}-AASE-NH2 [CoA-Ac-AASE] | 247 µM |
